Results as given in the supplement of paper PMC10567573.

B1: MIA2 (parent)
chain: SVIEPVQESSFRSRKIAVEDENDL
B2: ARL6IP1 (parent)
chain: YLDPSVLSGVSCFVMFLCLADYLV

Variants of: B1
Experiment: protein stability index of a GFP-peptide fusion (GPS, HEK-293T) (PSI 1-6); higher = more stable
Settings: c terminus: a fixed tail appended
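Also: lentivirally expressed fusions sorted by FACS into six bins by GFP to DsRed ratio, PSI derived from sequencing read proportions per bin multiplied by bin number.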

Protein stability index, by site and new letter:
V18: G 5.18; E 5.53; C 5.03; D 4.18; K 5.63; A 5.35; F 5.36; I 5.3; H 5.36
S13: G 5.44; M 4.86; F 5.03; P 5.18; K 5.18; E 5.3; T 5.66; H 5.25; L 5.19; C 5.05; Y 5.12; I 5.11; D 5.05; N 5.61; A 5.65; Q 5.03; V 5.23; W 4.72; R 5.53
R12: P 6; G 5.53; Y 4.98; A 5.81; S 5.94; W 4.55; K 5.42; N 5.61; H 5.66; Q 5.44; F 4.83; V 5.36; E 5.75; I 5.12; M 5.41; L 5.22; T 5.46; D 5.6; C 4.82
P5: K 4.38; H 4.98; E 4.79; I 3.56; D 4.88; F 3.31; C 4.74; A 4.3; L 3.56; S 5.03; Y 3.78; V 4.95; M 4.14; T 5.3; R 5.13; Q 5.26; N 5.01; W 3.49; G 4.65
S10: H 5.77; N 5.28; R 5.02; A 5.49; I 4.28; Q 5.67; M 4.89; D 5.54; K 5.54; G 5.78; T 4.48; E 5.27; F 4.74; Y 4.81; V 5.28; L 4.72; P 5.02; W 4.72; C 5.34
V2: C 5.76; M 5.22; G 5.67; D 5.83; P 5.15; L 5.24; S 5.32; Q 5.82; R 5.5; E 5.22; K 5.38; Y 5.26; H 5.51; F 4.42; N 5.87; W 5.14; A 5.31; I 4.69; T 5.31
E8: Y 4.49; T 4.52; I 4.83; N 5.64; K 4.78; R 4.79; S 4.42; L 5.02; P 5.27; C 4.97; M 4.58; D 4.48; H 5.02; V 5.14; A 5.28; Q 5.1; F 4.63; G 5.28; W 4.66
A17: D 5.43; S 4.86; K 5.59; M 5.55; I 5.05; V 5.3; Y 4.87; F 5.05; Q 5.44; P 5.66; L 4.97; E 5.68; C 4.81; N 5.45; R 4.77; W 4.92; G 5.14; H 5.53; T 5.09
K15: P 5.65; T 5.11; N 5.67; W 4.44; H 5.36; F 5.03; V 5.43; A 5.63; I 5.05; C 5.2; R 5.43; E 5.69; G 4.85; S 5.61; D 5.52; L 5.14; Q 5.71; Y 5.29; M 5.11
E4: A 5.68; L 4.62; V 4.71; Y 4.64; N 5.21; S 5.25; W 3.74; I 4.62; C 5.08; D 5.01; M 4.9; F 4.73; G 5.01; P 5.37; K 5.03; Q 4.7; T 5.35; H 4.44; R 5
F11: T 5.86; N 5.62; S 5.26; G 5.28; M 5.19; I 5.15; L 5.46; Q 4.71; V 5.16; D 5.92; C 4.9; P 5.08; H 5.37; E 5.84; R 5.67; Y 5.26; A 4.79; W 5.44; K 5.4
S1: R 5.32; H 5.52; C 5.53; K 5.13; I 3.96; P 5.59; E 5.28; Q 5.39; F 2.93; D 5.68; T 5.45; M 4.71; N 5.69; W 4.46; V 4.33; L 4.33; G 5.17; A 5.01; Y 3.12
V6: I 5.34; Y 4.91; A 5.31; K 5.62; L 5.16; D 5.65; P 5.18; H 5.48; F 4.94; T 5.39; M 5.46; E 5.76; C 5.66; S 5.27; W 4.53; Q 5.37; R 5.27; N 4.92; G 5.75
I3: Y 5.42; K 4.92; L 5.59; H 4.67; G 5.73; P 5.13; W 5.13; S 4.84; A 5.71; F 5.32; M 5.44; Q 4.57; N 5.61; T 5.6; D 5.9; V 5.62; C 5.5; R 5.59; E 5.61
I16: P 5.04; T 5.37; Y 4.98; R 5.22; E 5.19; H 4.28; N 5.6; M 5.42; V 5.41; K 5.01; S 5.45; C 4.17; D 5.68; L 5.13; F 5.12; A 4.72; Q 5.15; G 5.42; W 4.66
S9: V 5.19; G 5.08; D 5.35; A 5.35; H 4.98; E 5.05; F 4.64; N 5.09; I 5.31; T 5.19; C 5.09; R 5.45; M 4.37; P 5.66; L 4.48; Y 5.25; K 5.44; W 4.86; Q 5.35
R14: V 5.51; P 5.4; A 5.53; M 5.02; T 5.31; N 5.75; Y 4.42; E 5.32; L 4.98; K 5.67; G 5.55; F 4.39; W 4.13; S 5.13; Q 5.67; I 5.04; C 5.08; D 5.75; H 5.4
Q7: V 5.28; D 5.25; H 5.34; E 5.25; S 5.46; N 4.82; M 5.04; P 5.49; L 5.29; T 5.32; A 4.21; Y 5.21; I 4.93; C 3.93; W 5.13; K 4.98; G 5.13; R 4.92; F 4.46

Variants of: B2
Experiment: as above
Settings: c terminus: a fixed tail appended

Protein stability index: each site, then its substitutions
V24: S 2.53; Y 2.16
